Measured values as given in paper PMC2195629.

Target: Glycocalicin, the soluble extracellular portion of human GP Ibα (human) (UniProt P07359)
Experiment: cell adhesion assay

Chain of UniProt P07359 (P07359 17-531): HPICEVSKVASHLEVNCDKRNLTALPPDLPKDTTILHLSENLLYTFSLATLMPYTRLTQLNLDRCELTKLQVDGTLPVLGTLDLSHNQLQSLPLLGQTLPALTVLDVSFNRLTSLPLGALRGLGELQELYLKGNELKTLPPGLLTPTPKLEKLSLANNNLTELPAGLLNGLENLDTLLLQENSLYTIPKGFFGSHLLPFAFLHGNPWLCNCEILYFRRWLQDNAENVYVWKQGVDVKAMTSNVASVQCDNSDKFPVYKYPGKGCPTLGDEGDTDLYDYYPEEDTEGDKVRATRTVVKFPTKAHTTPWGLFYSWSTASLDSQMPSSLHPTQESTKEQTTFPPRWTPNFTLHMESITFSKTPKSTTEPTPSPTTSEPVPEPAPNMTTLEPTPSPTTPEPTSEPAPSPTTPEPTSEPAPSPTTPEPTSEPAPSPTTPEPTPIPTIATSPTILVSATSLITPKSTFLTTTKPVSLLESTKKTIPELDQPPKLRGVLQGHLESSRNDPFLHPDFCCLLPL

Substance “phosphatidylinositol glycan–linked form of P-selectin on CHO cells (CHO-P) (from UniProt P16109 42-830) (receptor)” has a fold adhesion over untransfected CHO cells of 5 fold.
